{"source": "paper PMC4776307", "about": "“The Escherichia coli Cryptic Prophage Protein YfdR Binds to DnaA and Initiation of Chromosomal Replication Is Inhibited by Overexpression of the Gene Cluster yfdQ-yfdR-yfdS-yfdT” (Frontiers in Microbiology, 2016)", "binders": {"B1": {"name": "DiaA (natural protein, Escherichia coli, UniProt P66817 1-196, looked up)", "chain": "MQERIKACFTESIQTQIAAAEALPDAISRAAMTLVQSLLNGNKILCCGNGTSAANAQHFAASMINRFETERPSLPAIALNTDNVVLTAIANDRLHDEVYAKQVRALGHAGDVLLAISTRGNSRDIVKAVEAAVTRDMTIVALTGYDGGELAGLLGPQDVEIRIPSHRSARIQEMHMLTVNCLCDLIDNTLFPHQDD", "notes": "results and legends say only DiaA; also called His-DiaA; purified DiaA; source: purified"}, "B2": {"name": "His-tagged YfdR (His-YfdR) (natural protein, Escherichia coli, UniProt P76514 1-178, looked up)", "chain": "MSFIKTFSGKHFYYDKINKDDIVINDIAVSLSNICRFAGHLSHFYSVAQHAVLCSQLVPQEFAFEALMHDATEAYCQDIPAPLKRLLPDYKRMEEKIDAVIREKYGLPPVMSTPVKYADLIMLATERRDLGLDDGSFWPVLEGIPATEMFNVIPLAPGHAYGMFMERFNDLSELRKCA", "notes": "YfdR of the cryptic prophage CPS-53 of Escherichia coli; amplified from pSSP with a forward primer that begins at the ATG of yfdR (nogu10) and nogu11, cloned NheI-EcoRI into pBAD/HisB; also called purified YfdR; source: E. coli MC1061 carrying pYfdR (pBAD/HisB), arabinose-induced, purified (Ni-NTA agarose)"}, "B3": {"name": "DnaA (native, wild-type) (natural protein, Escherichia coli, UniProt P03004 1-467, looked up)", "chain": "MSLSLWQQCLARLQDELPATEFSMWIRPLQAELSDNTLALYAPNRFVLDWVRDKYLNNINGLLTSFCGADAPQLRFEVGTKPVTQTPQAAVTSNVAAPAQVAQTQPQRAAPSTRSGWDNVPAPAEPTYRSNVNVKHTFDNFVEGKSNQLARAAARQVADNPGGAYNPLFLYGGTGLGKTHLLHAVGNGIMARKPNAKVVYMHSERFVQDMVKALQNNAIEEFKRYYRSVDALLIDDIQFFANKERSQEEFFHTFNALLEGNQQIILTSDRYPKEINGVEDRLKSRFGWGLTVAIEPPELETRVAILMKKADENDIRLPGEVAFFIAKRLRSNVRELEGALNRVIANANFTGRAITIDFVREALRDLLALQEKLVTIDNIQKTVAEYYKIKVADLLSKRRSRSVARPRQMAMALAKELTNHSLPEIGDAFGGRDHTTVLHACRKIEQLREESHDIKEDFSNLIRTLSS", "notes": "DnaA, chromosomal replication initiator of Escherichia coli; called native, intact, wild-type DnaA; Untagged; In the bio-oriC pull-downs it stood as DnaA complexes (multimers) formed on a biotin-tagged oriC DNA fragment; also called native DnaA; wild-type DnaA (WT); source: purified"}}, "conditions_in_all_cases": "both partners purified", "key": {"[1]": {"target": "B3", "experiment": "pull-down; DnaA (7.5 pmol) and bio-oriC (100 fmol) with His-DiaA (10 pmol as monomer) 5 min on ice, then His-YfdR for 10 min; streptavidin beads; SDS-15% PAGE, silver staining"}, "[2]": {"target": "T1, biotin-tagged DnaA (bio-DnaA) (Escherichia coli, UniProt P03004 1-467, biotin (biotin-tagged))", "T1 construct": "DnaA, chromosomal replication initiator of Escherichia coli; also called bio-DnaA (Full); source: purified, as reported (Ishida et al., 2004)", "T1 sequence (looked up)": "B3 chain", "experiment": "pull-down; bio-DnaA (5 pmol) first incubated with purified DiaA (10 pmol), then with protein extracts of cells carrying pQRST or pBAD18; streptavidin beads; SDS-PAGE, silver staining"}, "[3]": {"target": "T1, biotin-tagged DnaA (bio-DnaA)", "experiment": "pull-down; DiaA (10 pmol as monomer) with bio-DnaA (5 pmol) 5 min on ice, then purified His-YfdR for 10 min; streptavidin beads; SDS-PAGE, silver staining"}, "[4]": {"target": "B3", "experiment": "pull-down; His-YfdR (10 pmol) with native DnaA or DnaA F46A in buffer R with 20 mM imidazole (20 uL; 2 mM ATP), on ice; Co2+ magnetic beads (Dynabeads); wash with 100 mM KCl and 50 mM imidazole; SDS-13% PAGE, silver staining; bead-bound DnaA subtracted"}, "[5]": {"target": "T2, DnaB-DnaC complex (Escherichia coli, UniProt P0ACB0 1-471; P0AEF0 1-245)", "T2 construct": "DnaB replicative helicase of Escherichia coli (homohexamer); DnaC helicase loader of Escherichia coli; Formed beforehand from 7.5 pmol DnaB (as monomer) and 7.5 pmol DnaC; also called DnaB-DnaC complexes; source: DnaB and DnaC co-incubated on ice; copies: 6 +", "T2 sequence (P0ACB0 whole entry, chain 1 of 2)": "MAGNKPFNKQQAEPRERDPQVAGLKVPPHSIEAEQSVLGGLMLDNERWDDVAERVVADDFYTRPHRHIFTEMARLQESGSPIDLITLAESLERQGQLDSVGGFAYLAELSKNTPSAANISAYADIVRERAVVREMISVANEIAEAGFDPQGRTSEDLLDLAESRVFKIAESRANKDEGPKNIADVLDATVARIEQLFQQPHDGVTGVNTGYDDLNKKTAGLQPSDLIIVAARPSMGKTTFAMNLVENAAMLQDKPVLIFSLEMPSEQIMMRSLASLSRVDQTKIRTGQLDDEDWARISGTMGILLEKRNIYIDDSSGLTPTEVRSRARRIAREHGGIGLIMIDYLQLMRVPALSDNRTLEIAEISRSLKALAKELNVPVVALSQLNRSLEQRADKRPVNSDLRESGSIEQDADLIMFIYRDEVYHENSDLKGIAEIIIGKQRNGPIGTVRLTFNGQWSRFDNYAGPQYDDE", "T2 sequence (P0AEF0 whole entry, chain 2 of 2)": "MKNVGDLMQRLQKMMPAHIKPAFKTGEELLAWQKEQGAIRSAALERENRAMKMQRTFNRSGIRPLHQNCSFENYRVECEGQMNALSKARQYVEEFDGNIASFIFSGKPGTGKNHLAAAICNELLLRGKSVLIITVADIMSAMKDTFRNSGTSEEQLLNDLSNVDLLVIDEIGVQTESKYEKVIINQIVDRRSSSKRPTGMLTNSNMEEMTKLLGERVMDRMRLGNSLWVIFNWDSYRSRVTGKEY", "experiment": "pull-down; DnaA (7.5 pmol) and bio-oriC (100 fmol) with DnaB-DnaC complex (7.5 pmol each) 5 min on ice, then His-YfdR for 10 min; streptavidin beads; SDS-12% PAGE, silver staining"}}, "data": [{"binder": "B1", "values": [{"measurement": "binding result", "setting": "[1]", "result": "binds"}, {"measurement": "binding result", "setting": "[2]", "result": "binds"}]}, {"binder": "B2", "values": [{"measurement": "binding result", "setting": "[3]", "result": "binds"}, {"measurement": "binding result", "setting": "[4]", "result": "binds"}]}, {"binder": "B3", "values": [{"measurement": "binding result", "setting": "[5]", "result": "binds"}]}]}
